The series is described as follows: soluble on expression in E. coli; label from the status in PepcDB or PDB records.
Take “MFFSVVIPTYNRLPILEKCLRALEQQTFDETLISGYEIVVVDDGSTDGTLAWLDGHCQGFPHVRTWEQDHQGPAAARNLGVKEAAGDTIIFIDSDLVVTDIFLQAHAEGLQRGQKQYNSDRVFTYGAVVNTCNFDSPQSEPYKLTDYSAAFFATGNVAIAKQWLLEAGLFDTGFQLYGWEDLELGVRLKNLGLKLVKCPRAVGYHWHPPFSLQQIPKLIDQEIQRGRMGVLFYQKHPTWEVRLMIQMTRLHWFLWGLLSLGGRLNEKTMAPLLQWLIDHDRPQLALEIARIFLNWYNVQGVYAAFAESQSSHLEHHHHHH”: the “soluble on expression in E. coli” value is given as “not soluble”.

Turning to “MFGLRTRNQEAESEYRRFIKGLSDSMAMIEFDTRGIILNANDLFLSCVGYTREAIVGKHHSIFCDRGYVQSPRYQQFWDDLKMGKHKRGTFERLTSQRERLVLEASYFPIESEHGQIEKVVKIASDVTQQRLESEQKEAILNALDLSLATIEFDREGYILTANQNFLKTLGYELSDVQGKHHKLFCFDDFYQENPGFWKDLAAGQFKSGQFLRRSASGDKVYIEATYNPIFDPAGNVIKVVKFASDITDKVQRDLNISQAIADSSFIARNASEEATSNVCGAEHSLNEFRTMIEEVLRAVTACDDK”, the “soluble on expression in E. coli” value is “not soluble”.

Regarding “MFISCFDMFKIGIGPSSSHTLGPMKAGKAFVDTLEERDLLDRVTRVRADVYGSLSLTGIGHATDKAIIMGLAGFEPETVDIDAMPGFLEIVASLQRLALAGGKKTVDFSRTEGIVFHNTCLQLHENGMTITAFEGDEVLLTKAYFSIGGGFIVDKEHFGLPVEDTAVVPFPYNTAEEVLAHCDREGMSIPEFAWRNEVAANGEEAVREHLAKVWKVMQSGIERGSSAEGILPGDLRVPRRAKALRERLEATSENEPLRMMSWLNMFAMAVNEENASGGRVVTSPTNGACGVLPAVLSYWDRLVKPVGEQEVIDYLLTCGVVGALYKKNASISGAEVGCQGEVGVACSMAAAGIAQLMGATPAQAFAAAEIAMEHNLGLTCDPVCGQVQVPCIERNAIAAVTSVNAANMSLQRGSTPTVSLDQVIQTMYQTGKDMDSKYRETSLGGLAKVLMPRLMPCS”, the “soluble on expression in E. coli” value is given as “not soluble”. The same measure for “MFKDFFNRTKKKKYLTVQDSKNNDVPAGIMTKCPKCKKIMYTKELAENLNVCFNCDHHIALTAYKRIEAISDEGSFTEFDKGMTSANPLDFPSYLEKIEKDQQKTGLKEAVVTGTAQLDGMKFGVAVMDSRFRMGSMGSVIGEKICRIIDYCTENRLPFILFSASGGARMQEGIISLMQMGKTSVSLKRHSDAGLLYISYLTHPTTGGVSASFASVGDINLSEPKALIGFAGRRVIEQTINEKLPDDFQTAEFLLEHGQLDKVVHRNNMRQTLSEILKIHQEVTK”: “not soluble”; for “MFKHDCQFEDLRIIAQRVNPLDPTWNEWTLVACQKCKMLKEWQHHSEEQMHGGDLHITALPTHDYLHHIYGIVESDVDLILTHQKKARRYNRYTNAVEEHDV”: “not soluble”. As for “MFKVLAEAFASARLRLGAILFSPQSLAFLPAFCLGLYWYGGETALMITALVFPVFFLVARAKLAETVTTSRQDSVLGVMQPDGFQDIVAARFREARAGGLISTVFQIEIDDHTSLVERHGQRAAEVISTTSADRIAAVLRDRDAVTHLDTFKYAVCLEPVRQMDLELCIQLAGRIQAALEEPIALDATAVCITSSVGFCQQTKVLSRSGEAWLAAAGHALREAHLNGPGAIRAYSEKMQQKSEIRAELREEVAQALEKGQIKPWFQPQISTDTGLVTGFEALARWNHPKRGMVPPGAFLTAIEQAGMLEKLAEVMIFHAFTALKAWDSAGVCVPQVGVNFAGPELSNPKLVDKIIWELDRFDLAPERLAVEVLETVVANSPDDTITRNINGLSKLGCRIDLDDFGTGHASISSIRRFSVSRIKIDRSFVIKADRDPEQQRMISAILTMAERLEVETLAEGVESVGEHALLAQLGCDHVQGFGIGKPMPFDQTLDWIASHNAKLQATPQILPNKLRLEHHHHHH”, the “soluble on expression in E. coli” value is on record as “soluble”. On to “MFLAGAFIAVGSLYAQSSDAEWQAGVAKLKETIQTNPAQANEEAEQLIKGKNKKNVELLVAIGEVYLKAGKLPEAQEYAALAKKVNGKSALASVLEGDIAFEQKNAGLASQKYEEAIYFDPSCTEAYLRYADIYKSANAALAIEKLEQLKAQEPSNTAVDKKLAEIYYLKNDFSKAAEAYSRFAMGPTATEEDLVKYAFALFLNHDFEKSLEVANMGLKKNARHAAFNRLAMYNYTDLKRFDEAIKAADAFFTESDKADYSYLDYMYYGHLLEALKKYDEAVGQYEKAIQLDPTKTDLYKNISSAYEQKNDYKKAISAYQKYYTSLDKLEHHHHHH”, for which the “soluble on expression in E. coli” value is given as “soluble”. In the case of “MFLDEHINRNFDKLNDNDLHIAHFINTHIDECKNMKIQDLAQFTHASNATIHRFTRKLGFDGYSDFKSYLKFESNKTHQLPSNSIDSFKQEIDSTFSYLERVDYQLLTEKMHTA”, the “soluble on expression in E. coli” value was “not soluble”. For “MFLDMLSLIRGQKIKLNDALQGQSSFYIQIHYQAAFDLDIASFGLDSQYRLSDERYMTFYNQPETPCQAVRLIENQNKCSRFLVDLAKLPATIQHLVLTAAIDGQNIMSQLQQVTVQILNLQLQPIAELKLDASIFDQERATMLIEIYRKEGIWRLAAIGQGFNAGLAALIQHFGGEVAEEPTAQQTTPVAPQSNIDLKKKLSLQKAEKTGNASIIDLTKKSLVQLEKKKLLGVTARVALVLDASGSMDGQYRRGDVQKVVNRLMPLAIHFDDDGSFECWAFAAETTQLDDVTLSNVNDFINSTQRGWKNWQVGARYNEEIPAIEAVINYFQKFQDQIPTYVLFISDGGVGSRRQMQKILSQAAKLPIFWQFVGIGGRNYGALEKLDEMSGRIVDNCNFFSLDRIDGVSDERLYELLLQEFPDWLIAARQHQIVRNLEHHHHHH”, the “soluble on expression in E. coli” value is reported as “not soluble”. In the case of “MFLSVVTVAFRNYEGVVKTWRSLRNLARDPGLSFEWIVVDGGSEDGTREFLQKRHGEFNLRFISEKDRGIYDAMNKGIALAQGRYTLFLNSGDAFHDDAALFVRQLARQKGEAMYIGDALLDFGGGHKIRRKAKPGYYIYHSLPASHQAIFFPTAALKKYPYDLQYHVSSDYALAARLYKAGYPFRRINGLVSEFSMGGVSTSNNLELCQDAKNVQRKILRVPGFWAQLSYLLRLKTTGKTKARYNKVLEHHHHHH” it was “not soluble”; in that of “MFNCLGMGNRDFIEGASGATWVDLVLEGDSCLTIMANDKPTLDVRMINIEASQLAEVRSYCYHASVTDISTVARCPTTGEAHNEKRADSSYVCKQGFTDRGWGNGCGFFGKGSIDTCAKFSCTSKAIGRTIQPENIKYKVGIFVHGTTTSENHGNYSAQVGASQAAKFTVTPNAPSVTLKLGDYGEVTLDCEPRSGLNTEAFYVMTVGSKSFLVHREWFHDLALPWTSPSSTAWRNRELLMEFEGAHATKQSVVALGSQEGGLHQALAGAIVVEYSSSVMLTSGHLKCRLKMDKLALKGTTYGMCTEKFSFAKNPVDTGHGTVVIELSYSGSDGPCKIPIVSVASLNDMTPVGRLVTVNPFVATSSANSKVLVEMEPPFGDSYIVVGRGDKQINHHWHKAGSTLGKA”, “not soluble”. In the case of “MFNCLGTSNRDFVEGASGATWIDLVLEGGSCVTVMAPEKPTLDFKVMKMEATELATVRKYCYEATLDTLSTVARCPTTGEAHNTKRSDPTFVCKRDVVDRGWGNGCGLFGKGSIDTCAKFTCKNKATGKTILRENIKYEVAIFVHGSTDSTSHGNYFEQIGKNQAARFTISPQAPSFTANMGEYGTVTIDCEARSGINTEDYYVFTVKEKSWLVNRDWFHDLNLPWTSPATTDWRNRETLVEFEEPHATKQTVVALGSQEGALHTALAGAIPATVSSSTLTLQSGHLKCRAKLDKVKIKGTTYGMCDSAFTFSKNPTDTGHGTVIVELQYTGSNGPCRVPISVTANLMDLTPVGRLVTVNPFISTGGANNKVMIEVEPPFGDSYIVVGRGTTQINYHWHKEGSSIGKA” it was “not soluble”; in that of “MFNEKDQLAVDTLRALSIDTIEKANSGHPGLPMGAAPMAYTLWTRHLNFNPQSKDYFNRDRFVLSAGHGSALLYSLLHVSGSLELEELKQFRQWGSKTPGHPEYRHTDGVEVTTGPLGQGFAMSVGLALAEDHLAGKFNKEGYNVVDHYTYVLASDGDLMEGISHEAASFAGHNKLSKLVVLYDSNDISLDGELNKAFSENTKARFEAYGWNYLLVKDGNDLEEIDKAITTAKSQEGPTIIEVKTTIGFGSPNKAGTNGVHGAPLGEVERKLTFENYGLDPEKRFNVSEEVYEIFQNTMLKRANEDESQWNSLLEKYAETYPELAEEFKLAISGKLPKNYKDELPRFELGHNGASRADSGTVIQAISKTVPSFFGGSADLAGSNKSNVNDATDYSSETPEGKNVWFGVREFAMGAAVNGMAAHGGLHPYGATFFVFSDYLKPALRLSSIMGLNATFIFTHDSIAVGEDGPTHEPIEQLAGLRAIPNMNVIRPADGNETRVAWEVALESESTPTSLVLTRQNLPVLDVPEDVVEEGVRKGAYTVYGSEETPEFLLLASGSEVSLAVEAAKDLEKQGKSVRVVSMPNWNAFEQQSEEYKESVIPSSVTKRVAIEMASPLGWHKYVGTAGKVIAIDGFGASAPGDLVVEKYGFTKENILNQVMSL”, “not soluble”. The same measure for “MFNKASFLTRLVASSVRVSEAAGGLIKNVMAGGDLKIIDKSEHGSGYDPQTEADRRAQYCIVQSLQKHFKNINIIGEEEDTTACPEIEMGFSADVLQMERLMSTELKNIQENDVVVWVDPLDGTSEVALAVKNKNMALLEQVTVLIGIAYKGRPVAGIIHQPYHEKLGRTVWAIQGCGVHGVVPATGNAQKIVVTTRSHLSESVSNALEALKTRNLADSVEKVGGAGFKVLKVLEGCAAYVFASAGCKKWDTCAVEAVLTAAGGTLTDISGRDIRYEPGVQLNNTGGVLATASWVKHKDYIDTIPQEIKNMLPEISSKK”: “not soluble”; for “MFNLGSMFNLGPSEPVVGKASILLECPAGKAFKFIGENLFLNYPRWSPEVKELEQLTHGPVCLGTIARQVRVDQGHRSESKFRITIYEPDRRVAFAGISDPFRCVYELLDEQNSGSTRLLFKFELLEIQMIMRPFEPMIRTAVQDGAERTVQNIKRLVESEPGALEHHHHHH”: “soluble”; for “MFNRIMVPVDGSKGAVKALEKGVGLQQLTGAELYILCVFKHHSLLEASLSMARPEQLDIPDDALKDYATEIAVQAKTRATELGVPADKVRAFVKGGRPSRTIVRFARKRECDLVVIGAQGTNGDKSLLLGSVAQRVAGSAHCPVLVV”: “soluble”.

Consider “MFPAQEEADRTVFVGNLEARVREEILYELFLQAGPLTKVTICKDREGKPKSFGFVCFKHPESVSYAIALLNGIRLYGRPINVQYRFGSSRSSEPANQSFESCVKINSHNYRNEEMLVGRSSFPMQYFPINNTSLPQEYFLFQKMQWHVYNPVLQLPYYEMTAPLPNSASVSSSLNHVPDLEAGPSSYKWTHQQPSDSDLYQMTAPLPNSASVSSSLNHVPDLEAGPSSYKWTHQQPSDSDLYQMNKRKRQKQTSDSDSSTDNNRGNECSQKFRKSKKKKRY”, for which the “soluble on expression in E. coli” value was “soluble”. In the case of “MFQGCYGGTQKHEPDLHIVLERAWQQGLQKVIVTAGCLKDVDEALELASKDERIYTTVGTHPTRCEEFVPDPEGYYDQLRSRIKANRTKVRAVGECGLDYDRLHFCAQETQRLYFEKQLDLAAEFKLPLFLHMRNAAEDFMGILERNRNKIEECGGGVVHSFTGTLEEAQRILAFGGLYIGFNGCSLKTDENAEVVRKLPNDRIMLETDCPWCGIRPSHAGHKHVTTKFPTVKKKEKWTAESLIDGRCEPCQISQVLESIAGIKQEPKEQLAALYYQNTLDLFFGTGESKELEHHHHHH” it was “not soluble”.

For the origin of these results see the DeepSol protein solubility set.
